Data from article PMC6471365 (Pathogens, 2019).

Tests used:
[1] = target: Recombinant SSL1 of S. aureus ocular isolate 295.236 (allele type 2) (Staphylococcus aureus isolate 295.236)
[2] = target: Recombinant SSL1 of S. aureus strain MW2 (allele type 1) (Staphylococcus aureus strain MW2)
[3] = target: Recombinant SSL1 of S. aureus strain Newman (allele type 3) with a C-terminal 6-His tag (Staphylococcus aureus strain Newman)
[4] = target: the molecule itself; experiment: gelatin zymography with SDS compared with reduced, denaturing SDS-PAGE

Recombinant SSL1 of S. aureus ocular isolate 295.236 (allele type 2) (from UniProt A0A0H3KAV3 31-226) (natural protein)
stoichiometry N [1]: 2

Recombinant SSL1 of S. aureus strain MW2 (allele type 1) (from UniProt A0A0H3KAV3 31-226) (natural protein)
stoichiometry N [2]: 2

Recombinant SSL1 of S. aureus strain Newman (allele type 3) with a C-terminal 6-His tag (from UniProt A0A0H3KAV3 31-226) (natural protein)
stoichiometry N [3]: 2

B1: Staphylococcus aureus superantigen-like protein SSL1 of strain Newman, native secreted protein (natural protein)
chain: KAEVKQQSESELKHYYNKPILERKNVTGFKYTDEGKHYLEVTVGQQHSRITLLGSDKDKFKDGENSNIDVFILREGDSRQATNYSIGGVTKSNSVQYIDYINTPILEIKKDNEDVLKDFYYISKEDISLKELDYRLRERAIKQHGLYSNGLKQGQITITMNDGTTHTIDLSQKLEKERMGESIDGTKINKILVEMK
notes: also called the toxin; the protease
stoichiometry N [4]: 2
